Legend:
Assay in all cases: MST
Conditions in all cases: 50 nM RED-NHS labeled PdtaR, RNA up to 10 uM, autophosphorylation buffer (composition and pH not in material) with 0.025% Tween-20, 50 uM ATP …
[1] = target: T1, PdtaR (unphosphorylated) (Mycobacterium tuberculosis Erdman (ATCC 35801)) (UniProt P9WGM3)
T1 sequence: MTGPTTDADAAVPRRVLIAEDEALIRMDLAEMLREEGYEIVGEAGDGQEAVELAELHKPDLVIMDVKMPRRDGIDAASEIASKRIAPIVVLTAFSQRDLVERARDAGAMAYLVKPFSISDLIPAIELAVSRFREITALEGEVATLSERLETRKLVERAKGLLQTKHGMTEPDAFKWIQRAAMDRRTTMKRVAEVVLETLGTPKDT

[2] = system: PdtaR (unphosphorylated) (Mycobacterium tuberculosis Erdman (ATCC 35801))
[3] = system: PdtaR~P (phosphorylated by PdtaS) (Mycobacterium tuberculosis Erdman (ATCC 35801))

Substance	Kd [1] [nM]	Kd [2] [nM]	Kd [3] [nM]
GGCAAAAAAUUCGUGCACCAACCCCCCUCCGAGCGCUGCUAAGCUCAAUGUGCAGUGCAAAGGUGCAGAUAAUGAUGGCGCACCGGAACGGCGAGCGUAAGGAAA [rv3864 RNA]	2590		
PPE1-5' RNA		1280	410
rv3864 RNA		2590	2120
